Assay results published in patent US20250297232A1, “BACTERIAL MYELOPEROXIDASE-CATALASE AND APPLICATIONS THEREOF” (priority 2022, published 2025).

Key:
[1] = Peroxidase activity with ABTS; type: biochemical; settings: ABTS range; 0.5 nM wt RbMPO, 79 μM H2O2, pH5.5, 37° C.
Method: The plate reader was configured to run a 10 min kinetics at 430 nm with the following ABTS concentration range: 0, 0.1, 0.2, 0.5, 1, 2, 5, 10, 15, 20, 30 and 40 mM.

[2] = Pre-steady state: return of wt RbMPO to its native state, Cl^− range; type: biochemical; settings: H2O2: 20 μM
Method: (§1) Kinetic parameters under pre-steady-state condition were performed with a Biologic SFM400 stopped-flow at 412 nm, 37° C. and with 50 mM sodium phosphate buffer at pH7.5. […] An exponential linear fit was applied to each kinetic using the following formula: […]
(§2) The return of the enzyme to its native state was studied by the impact of increasing concentrations of (pseudo)-halides substrates on compound I (FIG. 9B). […] It is the time difference (s) between the two characteristic steps that allowed the calculation of the values of the Vreturn(μM^−1.s^−1) values: […]

[3] = Pre-steady state: return of wt RbMPO to its native state, Br^− range; type: biochemical; settings: H2O2: 20 μM
Method: as §1, §2

[4] = Heme reconstitution of apo wt and mutated RbMPOs (tryptophan fluorescence quenching); type: binding; settings: heme reconstitution of apo enzyme; 1 μM enzyme, 50 mM sodium phosphate pH7.5, 25° C.
Method: Sample dilutions were performed in a 50 mM pH7.5 sodium phosphate buffer.

[5] = Stability of myeloperoxidase activity of wt RbMPO on storage in different buffers; type: physicochemical; settings: stored in PBS buffer pH 6.6 at 37° C., up to 60 minutes
Method: The enzyme was concentrated at […] for the 4° C. storage condition and at 132.2 μM for the 37° C. storage condition. The MPO activity of the enzyme was assessed at different time points by a standard activity test.
The MPO activity of the enzyme was assessed at different time points by a standard activity test. To do so, the concentrated enzyme was diluted and contacted with H2O2, NaCl and APF.
The value obtained at TO is defined as 100% of the enzymatic (MPO) activity at the temperature tested and all the other activities are calculated from this TO timepoint.

E. coli ATCC 25922 = assay: Microbicidal activity: counting colonies on Petri dishes; type: cell-based; settings: 1 h contact with 1.10^6 CFU/mL, 25 mM SCN^−, pH7.4; enzyme alone: wt RbMPO 300 nM or GOxaspniger 25 nM
Method: 10 mL of TSB medium (pH7.4) was inoculated with a freshly obtained colony of E. coli ATCC 25922, and the culture was incubated at 37° C. and 190 rpm overnight. In the morning, 25 mL of TSB medium were inoculated with the previous day's pre-culture to obtain an OD620 nm of 0.07 at TO. When the bacterial culture reached the exponential phase, the bacterial solution was diluted 10-fold in TSB in order to reach 1.10^6 CFU/mL. This dilution was then contacted with the enzyme solution for 1 hour (in a final volume of 1 mL). Further dilutions were then made (10^−1, 10^−4, 10−5, 10^−6). 100 μL of these solutions were spread on a Petri dish containing TSB agar medium and placed at 37° C. overnight. The next day, the surviving colonies were counted and the number of CFU/mL was calculated using the formula below: […]

[6] = Steady-state kinetics by stopped-flow, NaCl (Tau-NHCl formation, 253 nm); type: biochemical; settings: NaCl range (k2), 300 nM of enzyme and 79 μM of H2O2
Method: (§3) pH- and temperature-dependent studies were carried out for each substrate.
(§4) These temperatures were reached by using a stopped-flow coupled to a cryostat.
(§5) For temperature and pH measurements, RbMPO was set at the same concentration as in the determination of steady state kinetics parameters.

[7] = tested on: E. coli strain ATCC 25922; assay: Microbicidal activity: bacterial growth kinetics in a microplate (A620nm, 16 h); type: cell-based; settings: for inhibition of bacterial growth: glucose 14 mM, pH 7.4, 37° C.
Method: The microbicidal activity of RbMPO towards the E. coli strain ATCC 25922 was evaluated by two independent experiments.
E. coli 25922 were grown on TSB-agar for 16 h at 37° C. One colony is grown in 10 ml of TSB medium under stirring at 190 rpm at 37° C. The optical density (OD) of the bacterial preculture was measured at 620 nm in a spectrophotometer (Ultrospec 10, Biochrom). 25 ml of TSB medium was inoculated to obtain an OD of approximately 0.09. When the OD was between 1 and 2, a dilution in 10 mL of TSB medium was performed to obtain 2×10^6 CFU/ml. Bactericidal tests were performed in 96-well microplates under a final volume of 100 μl with 10^6 CFU/ml. The plate cover was treated with 0.05% TritonX−100 and 20% ethanol to prevent condensation and thus avoid misreading of the wells by the instrument. The solution was allowed to act on the lid for 10 minutes, then removed and dried under a class II biological safety cabinet. Each tested condition was performed at least in triplicate and each experiment was repeated at least 3 times. The kinetics was set to 16 h with a measurement at 620 nm every 15 minutes in a microplate reader (Wallac Victor 2,1420 Multilabel counter) thermostated at 37° C. [shaking duration: 10.0s; shaking speed: fast; shaking diameter: 0.5 mm; shaking type: orbital; measurement time: 0.2s; numbers of replicates: 60; time between replicates: 900 s; label: P620]. […] 5 mM bleach was used as a positive control and bacteria alone was used as a negative control. • By counting colonies on Petri dishes

[8] = Catalase activity (absorbance decay at 240 nm, stopped-flow); type: biochemical; settings: for kss: catalase, 300 nM enzyme, pH 7.5, 500 μM H2O2; for catalase activity, in words: 2 μM wt RbMPO, 37° C.
Method: Catalase activity was measured using the stopped-flow set-up, which was configured to measure absorbance decay at 240 nm and at 37° C.

[9] = Steady-state kinetics by stopped-flow, NaSCN (hypothiocyanate formation, 240 nm); type: biochemical; settings: for kss: SCN^− 5 mM, 267 nM RbMPO, H2O2 79 μM
Method: as §3, §4, §5

B1: wt RbMPO: novel bacterial heme peroxidase (myeloperoxidase-catalase) of about 78 KDa from Rhodopirellula baltica, SEQ ID NO: 1, produced recombinantly in E. coli (protein, listed as Rhodopirellula baltica)
chain: MLFWSKRTRKHPGRKRRRLRSEQLESRQLLAADFGGYRHNIYDAEDVNDDGRVSAIDALLVINAMTSETSRDENVFTDVNGDGRRSALDALRVINRIERGDVFPIDTSGDEDLNTLLPEMPSEVRSIDGSGNNPNDHLWGSVGQRLIRMAPAAYGDGISTLAGANRPSAREVSNVLSAMNTSQVLNDRGLSAFVYVWGQFIDHDLGLTESDEHGEAIDISVPEGDLWFDPMGSGEAVIPMTRTPIADGTGTSVGNPAQQFNQITAFIDGSMVYGSDAATAERLRTFAGGRLAISDNGLLPMDESGMVIAGDVRASENVGLTAIQTLFVREHNRLADEIFAADPEATDEEIYQRARLVVASLIQSITYNEFLPALLGQRAMDSYRGYDASVNPGIANEFSTAAFRLGHSTLRDEVGFMSNDGRESKDEMELKDAFFHASMLEETGIDSLLKFDASVQAQEIDLAVVDSLRNFLFGPPGAGGLDLVAMNIQRGRDHGLSDYNTTRQAYGLDRVETFDQITGDVELQQKLASLYGTVDNIDLWVGLMAEDHQHDASVGELTGLIIADQFQRTRDGDRFFYKNVLTDSEVESIERSTLADLIERNTSVDGLQENVFFMQVELRGRVILASSIPPNTMPSEVREEEIRGVSGMAIELIDASGKLVDSTVSDQHGNYRFRALSETGDYQVRLSESGEAMDVLVAHGAERIRGLDFIVLA
k2 [1]: 10620 M⁻¹ s⁻¹ | kreturn/K1/2 [2]: 5169 ± 4872 M⁻¹ s⁻¹ | kreturn/K1/2 [3]: 607.77 ± 161.51 M⁻¹ s⁻¹ | k2 [4]: 1430 ± 74.4 M⁻¹ s⁻¹ | fall of myeloperoxidase activity [5]: 50% | surviving bacteria (E. coli ATCC 25922): 13,850,000±4,454,773 CFU/mL | kss/[Cl^−] [6]: 5.46 ± 0.67 M⁻¹ s⁻¹ | excess of wt RbMPO over GOxaspniger required for 100% bactericidal effect ([7]; 10 nM GOxaspniger, 25 mM SCN^−, pH 7.4): at least 15 times | inhibition of bacterial growth ([7]; 150 nM wt RbMPO and 10 nM GOxaspniger (15:1 ratio), 25 mM SCN^−): 100% | inhibition of bacterial growth ([7]; 300 nM wt RbMPO and 25 nM GOxaspniger (12:1 ratio), 25 mM SCN^−): 100% | inhibition of bacterial growth ([7]; 300 nM wt RbMPO and 30 nM GOxaspniger (10:1 ratio), 25 mM SCN^−): 100% | bactericidal effect ([7]; 25 mM SCN (pH 7.4), between 10 and 30 nM GOxaspniger, from 300 nM wt RbMPO): 100% | catalase activity kept ([8]; about 50° C. to about 60° C.): more than 80% | catalase activity kept ([8]; between 20° C. and 40° C.): more than 90% | kss ([8]; 10° C.): 2.04 ± 0.01 s⁻¹ | kss ([8]; 20° C.): 2.55 ± 0.02 s⁻¹ | kss ([8]; 30° C.): 2.75 ± 0.01 s⁻¹ | kss ([8]; 37°): 2.78 ± 0.01 s⁻¹ | kss ([8]; 40° C.): 2.64 ± 0.01 s⁻¹ | kss ([8]; 50° C.): 2.43 ± 0.01 s⁻¹ | kss ([8]; 60° C.): 2.39 ± 0.01 s⁻¹ | catalase activity, in words ([8]; pH4, 5, 8 and 9): no detectable catalase activity | catalase activity, in words ([8]; pH6 and pH10): negligible | kss ([9]; 37° C., pH 4): 0.7 ± 0.04 s⁻¹ | kss ([9]; 37° C., pH 5): 5.4 ± 0.02 s⁻¹ | kss ([9]; 37° C., pH 6): 27.0 ± 0.06 s⁻¹ | kss ([9]; 37° C., pH 7): 42.8 ± 0.13 s⁻¹ | kss ([9]; 37° C., pH 8): 20.4 ± 0.03 s⁻¹ | kss ([9]; 37° C., pH 9): 3.1 ± 0.02 s⁻¹ | kss ([9]; 37° C., pH 10): 0 ± 0 s⁻¹ | kss ([9]; pH 7.5, 10° C.): 5.0 ± 0.01 s⁻¹ | kss ([9]; pH 7.5, 20° C.): 37.6 ± 0.10 s⁻¹ | kss ([9]; pH 7.5, 30° C.): 56.3 ± 0.10 s⁻¹ | kss ([9]; pH 7.5, 37° C.): 63.2 ± 0.11 s⁻¹ | kss ([9]; pH 7.5, 40° C.): 55.5 ± 0.14 s⁻¹ | kss ([9]; pH 7.5, 50° C.): 56.5 ± 0.14 s⁻¹ | kss ([9]; pH 7.5, 60° C.): 67.2 ± 0.22 s⁻¹ | substrate specificity ([9]; from steady-state NaSCN, NaBr and NaCl ranges): SCN^−>Br^−>Cl^−
